# PMC5080769, “Bacillus subtilis 5′-nucleotidases with various functions and substrate specificities” (BMC Microbiology, 2016)
# B1: YcsE (Bacillus subtilis subsp. subtilis str. 168) (protein)
# chain: MSVQREDVDIKLIAIDMDGTLLNDEQLISDENRKAIREAEDKGVYVVISTGRTLMTCRELAESLKLSSFLITANGSEIWDSNFNLVERKLLHTDHIQMMWDLRNKHNTNFWASTVNKVWRGEFPENITDHEWLKFGFDIEDDDIRNEVLEELRKNKELEITNSSPTNIEVNALGINKAAALAKVTEKLGFTMENVMAMGDSLNDIAMIKEAGLGVAMGNAQDIVKETADYITDTNIEDGVAKAIRHWVL
# notes: full-length ORF, C-terminal His6 (pET28b, NdeI/XhoI), expressed in E. coli BL21(DE3), TALON purified
# B2: YktC (Bacillus subtilis subsp. subtilis str. 168) (protein)
# chain: MTNWTEIDEIAKKWIREAGARITQSMHESLTIETKSNPNDLVTNIDKETEKFFIDRIQETFPGHRILGEEGQGDKIHSLEGVVWIIDPIDGTMNFVHQQRNFAISIGIFENGEGKIGLIYDVVHDELYHAFSGRGAYMNETKLAPLKETVIEEAILAINATWVTENRRIDQSVLAPLVKRVRGTRSYGSAALELANVAAGRIDAYITMRLAPWDYAAGCVLLNEVGGTYTTIEGEPFTFLENHSVLAGNPSIHKTIFEEYLHARK
# notes: full-length ORF, C-terminal His6 (pET28b, BamHI/HindIII), expressed in E. coli BL21(DE3), TALON purified
# Assays:
# Assay in all cases: phosphate release, molybdate assay, A820
# YqeG = target: T1, YqeG (Bacillus subtilis, UniProt P54452); format: biochemical; conditions: 10 mM substrate, 12 h, 50 mM Tris-HCl pH 7.8, 10 mM MgCl2, 250 mM KCl, 1 mM NH4Cl, 37 °C
# T1 construct: gene pgpP; full-length ORF, C-terminal His6 (pET28b, NdeI/HindIII), expressed in E. coli BL21(DE3), TALON purified
# AraL = target: T2, AraL (Bacillus subtilis, UniProt P94526); format: biochemical; conditions: 10 mM substrate, 12 h, 50 mM Tris-HCl pH 7.8, 10 mM MgCl2, 250 mM KCl, 1 mM NH4Cl, 37 °C
# T2 construct: full-length ORF, C-terminal His6 (pET28b, NdeI/XhoI), expressed in E. coli BL21(DE3), TALON purified
# [1] = substrate: Nc1ccn([C@@H]2O[C@H](COP(=O)(O)O)[C@@H](O)[C@H]2O)c(=O)n1; format: biochemical, Bacillus subtilis; conditions: 50 mM Tris-HCl pH 7.8, 10 mM MgCl2, 250 mM KCl, 1 mM NH4Cl, 37 °C
# [2] = substrate: Nc1nc2c(ncn2[C@@H]2O[C@H](COP(=O)(O)O)[C@@H](O)[C@H]2O)c(=O)[nH]1; format: biochemical, Bacillus subtilis; conditions: 50 mM Tris-HCl pH 7.8, 10 mM MgCl2, 250 mM KCl, 1 mM NH4Cl, 37 °C
# [3] = substrate: Nc1ncnc2c1ncn2[C@@H]1O[C@H](COP(=O)(O)O)[C@@H](O)[C@H]1O; format: biochemical, Bacillus subtilis; conditions: 50 mM Tris-HCl pH 7.8, 10 mM MgCl2, 250 mM KCl, 1 mM NH4Cl, 37 °C
# [4] = substrate: O=c1ccn([C@@H]2O[C@H](COP(=O)(O)O)[C@@H](O)[C@H]2O)c(=O)[nH]1; format: biochemical, Bacillus subtilis; conditions: 50 mM Tris-HCl pH 7.8, 10 mM MgCl2, 250 mM KCl, 1 mM NH4Cl, 37 °C
# [5] = substrate: O=P(O)(O)OC(CO)CO; format: biochemical, Bacillus subtilis; conditions: 50 mM Tris-HCl pH 7.8, 10 mM MgCl2, 250 mM KCl, 1 mM NH4Cl, 37 °C
# T1 sequence (P54452 whole entry): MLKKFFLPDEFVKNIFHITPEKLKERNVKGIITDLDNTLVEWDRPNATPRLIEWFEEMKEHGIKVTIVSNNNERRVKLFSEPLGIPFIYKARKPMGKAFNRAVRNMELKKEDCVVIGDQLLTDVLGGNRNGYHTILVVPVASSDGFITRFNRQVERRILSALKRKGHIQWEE
# T2 sequence (P94526 whole entry): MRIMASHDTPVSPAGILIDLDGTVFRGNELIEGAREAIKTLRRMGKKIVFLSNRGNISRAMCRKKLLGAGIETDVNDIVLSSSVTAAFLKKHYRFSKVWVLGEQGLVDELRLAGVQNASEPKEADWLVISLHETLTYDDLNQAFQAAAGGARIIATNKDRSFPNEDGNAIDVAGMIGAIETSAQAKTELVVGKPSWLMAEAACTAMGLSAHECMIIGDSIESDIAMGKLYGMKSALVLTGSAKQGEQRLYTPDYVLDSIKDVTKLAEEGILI
Molecule,"phosphate release, molybdate assay, A820 (YqeG)","phosphate release, molybdate assay, A820 (AraL)",Km [1],Km [2],Km [3],Km [4],Km [5]
Nc1nc2c(ncn2[C@@H]2O[C@H](COP(=O)(O)O)[C@@H](O)[C@H]2O)c(=O)[nH]1 [GMP],YqeG hydrolyzed GMP and G6P only at the higher concentration,–,–,–,–,–,–
O=P(O)(O)OC[C@H]1OC(O)[C@H](O)[C@@H](O)[C@@H]1O (some centres unmarked) [G6P],YqeG hydrolyzed GMP and G6P only at the higher concentration,AraL activity was enhanced particularly against G6P at the higher concentration,–,–,–,–,–
B1,–,–,4.7 ± 0.23 mM,10.3 ± 0.12 mM,8.6 ± 0.80 mM,8.5 ± 0.69 mM,–
B2,–,–,1.6 ± 0.017 mM,1.9 ± 0.026 mM,–,2.4 ± 0.052 mM,0.49 ± 0.035 mM
